Target: T1, GFP-MAL^TIR fusion protein (EGFP residues 3-239; MAL residues 79-221) (UniProt P58753 79-221)
T1 construct: MAL (MyD88 adaptor-like/TIRAP), TIR domain, residues 79-221; Printed order of the fusion: EGFP residues 3-239, GSGGS linker, MAL residues 79-221, in pMCSG7; source: E. coli BL21 (DE3), purified (HisTrap FF, Superdex 75)
Experiment: crystal growth assay (DIC and GFP fluorescence microscopy); GFP-MAL^TIR-MyD88^TIR or MAL^TIR-MyD88^TIR seeds washed three times, diluted and mixed with MyD88^TIR (95 µM); 10 mM HEPES pH 7.5, 150 mM NaCl, 30 °C
Details: both partners purified

T1 sequence (P58753 79-221): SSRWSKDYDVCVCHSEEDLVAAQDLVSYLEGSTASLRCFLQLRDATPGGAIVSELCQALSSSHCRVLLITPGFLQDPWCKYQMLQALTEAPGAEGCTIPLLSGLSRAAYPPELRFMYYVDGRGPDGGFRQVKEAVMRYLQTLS

binding result: binds
B1: MyD88 TIR domain (MyD88^TIR), residues 155-296 (domain or fragment, human, UniProt Q99836 155-296, looked up)
chain: GHMPERFDAFICYCPSDIQFVQEMIRQLEQTNYRLKLCVSDRDVLPGTCVWSIASELIEKRCRRMVVVVSDDYLQSKECDFQTKFALSLSPGAHQKRLIPIKYKAMKKEFPSILRFITVCDYTNPCTKSWFWTRLAKALSLP
notes: MyD88 (myeloid differentiation primary response gene 88), TIR domain, residues 155-296 in pET28b; Forms open-ended two-stranded higher-order assemblies in the MAL-induced microcrystals; source: E. coli BL21 (DE3), purified (HisTrap FF, Superdex 75)

Source: article PMC8110528, “MyD88 TIR domain higher-order assembly interactions revealed by microcrystal electron diffraction and serial femtosecond crystallography” (Nature Communications, 2021)
